Results from paper PMC6589827 (Biochemistry, 2019).

Experiments:
[1] = ITC titration of folate into the crowders; type: binding
hemoglobin = conditions: read-out: Kd of folate for central cavity of hemoglobin; cited from earlier work
R67 DHFR-NADP^+ = R67 DHFR-NADP^+ (Escherichia coli, UniProt P00383); experiment: ITC, DHF binding to binary complex of R67 DHFR and NADP+
EcDHFR = EcDHFR (Escherichia coli, UniProt P0ABQ4); conditions: for decrease of kcat, DHF reduction by EcDHFR: crowder at 50 mg/mL
Chain of EcDHFR (P0ABQ4 whole entry): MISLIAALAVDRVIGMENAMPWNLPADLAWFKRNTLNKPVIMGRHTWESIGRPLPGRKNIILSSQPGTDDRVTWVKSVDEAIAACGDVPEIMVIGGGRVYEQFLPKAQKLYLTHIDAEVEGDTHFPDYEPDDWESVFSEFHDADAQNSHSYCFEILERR

R67 DHFR = R67 DHFR (Escherichia coli, UniProt P00383); experiment: Progress curve kinetics, reduction of DHF by R67 DHFR; type: biochemical; conditions: saturating NADPH, progress curves
Chain of R67 DHFR (P00383 whole entry): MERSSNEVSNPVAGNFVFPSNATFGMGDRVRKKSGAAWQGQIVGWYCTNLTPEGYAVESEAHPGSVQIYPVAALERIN

apo-EcDHFR = apo-EcDHFR (Escherichia coli, UniProt P0ABQ4); experiment: ITC, NADP+ binding to apo-EcDHFR; parameters: species or system E. coli
Chain of apo-EcDHFR (P0ABQ4 whole entry): as the sequence (P0ABQ4 whole entry) above

Chain of R67 DHFR-NADP^+ (P00383 whole entry): as the sequence (P00383 whole entry) above

Nc1nc(=O)c2nc(CNc3ccc(C(=O)N[C@@H](CCC(=O)O)C(=O)O)cc3)cnc2[nH]1 [folate]
heat of binding on titration into the crowders [1]: no heat of binding | Kd (hemoglobin): ~1 mM

Hemoglobin: bovine hemoglobin, 64,500 Da, protein crowder
weakening of R67 DHFR affinity for DHF (R67 DHFR-NADP^+; crowder at 50 mg/mL): 5.5 fold

casein
effect on kcat, DHF reduction by EcDHFR (EcDHFR; over the range of concentrations used): did not alter the kcat

lysozyme: hen egg-white lysozyme, 14,300 Da, protein crowder
decrease of kcat, DHF reduction by EcDHFR (EcDHFR): about 60% | effect on efficiency (kcat/KM) of R67 DHFR reduction of DHF (R67 DHFR): increases the efficiency | decrease of affinity of NADP^+ for EcDHFR (apo-EcDHFR; crowder at 50 mg/mL): 5 fold

B1: ovalbumin: protein crowder isolated from fresh eggs (protein, UniProt P01012 2-386, looked up)
Ovalbumin: GSIGAASMEFCFDVFKELKVHHANENIFYCPIAIMSALAMVYLGAKDSTRTQINKVVRFDKLPGFGDSIEAQCGTSVNVHSSLRDILNQITKPNDVYSFSLASRLYAEERYPILPEYLQCVKELYRGGLEPINFQTAADQARELINSWVESQTNGIIRNVLQPSSVDSQTAMVLVNAIVFKGLWEKAFKDEDTQAMPFRVTEQESKPVQMMYQIGLFRVASMASEKMKILELPFASGTMSMLVLLPDEVSGLEQLESIINFEKLTEWTSSNVMEERKIKVYLPRMKMEEKYNLTSVLMAMGITDVFSSSANLSGISSAESLKISQAVHAAHAEINEAGREVVGSAEAGVDAASVSEEFRADHPFLFCIKHIATNAVLFFGRCVSP
decrease of kcat, DHF reduction by EcDHFR (EcDHFR): about 60% | effect on the affinity of R67 DHFR for DHF (R67 DHFR-NADP^+; crowder added, ITC): little effect | effect on affinity of NADP^+ for apo-EcDHFR (apo-EcDHFR; over the concentration ranges used (up to 150 mg/mL with PVP-55)): no effect on affinity
